In test [1] the target is HLA-A*0201 molecule on human T2 cells (human). In words: T2 cells expressing HLA-A*0201, anti-HLA-A2-PE, FACS. As to conditions: remark: other sources report otherwise.
Test [2] has the same target. In words: T2 cells expressing HLA-A*0201, anti-HLA-A2-PE, FACS (Example 9).

As to ILDEAYVMA [EGFR-H], in test [1], the Concentration of peptide that induces 20% of HLA-A2 expression was determined as 2.8 µM, the In vitro binding affinity (relative to reference peptide HIV pol 589-597) came out at 0.2, the mean relative fluorescence intensity at 1.5625 µM peptide (% of HIV peptide) is 12 and the mean relative fluorescence intensity at 3.125 µM peptide (% of HIV peptide) was 28.6. For the same molecule, in test [1], the mean relative fluorescence intensity at 6.25 µM peptide (% of HIV peptide) came out at 33.7, the mean relative fluorescence intensity at 25 µM peptide (% of HIV peptide) was 91.5, the mean relative fluorescence intensity at 50 µM peptide (% of HIV peptide) was 107 and the mean relative fluorescence intensity at 100 µM peptide (% of HIV peptide) was determined as 87.4.

In the case of IVGAETFYV (modifications not checked) [reference peptide HIV pol 589-597, P04585 1021-1029], the In vitro binding affinity (relative to reference peptide HIV pol 589-597) in test [2] was found to be 1.
